One substance from paper PMC8564334 can be followed below.

For this data set, the system named is Histone H3;Histone H4 (His6-TEV) (Drosophila melanogaster;Drosophila melanogaster). Description: restriction enzyme protection. Conditions: purified tetrasome, Wheat germ cell-free co-expression with NAP1 at 26 C for 6 h, TALON purification in 10 mM Tris/HCl pH 7.4, 40 mM NaCl (elution 250 mM imidazole), 6% native ….

For 601_185bp, the binding signal (% protection from PmlI) (37 C) was determined as 81. Besides, the binding signal (% protection from BsiWI) (55 C) was 93.6.
